From patent publication US20050158799A1 (published 2005)

Target: T1, TLR3-YFP (Toll-Like Receptor 3 fused to yellow fluorescent polypeptide), stably expressed in HELA cells (UniProt O15455 24-904)
T1 construct: Immunoprecipitated from whole cell lysates with anti-GFP antibody; not shown: yellow fluorescent polypeptide (YFP)
T1 sequence (looked up): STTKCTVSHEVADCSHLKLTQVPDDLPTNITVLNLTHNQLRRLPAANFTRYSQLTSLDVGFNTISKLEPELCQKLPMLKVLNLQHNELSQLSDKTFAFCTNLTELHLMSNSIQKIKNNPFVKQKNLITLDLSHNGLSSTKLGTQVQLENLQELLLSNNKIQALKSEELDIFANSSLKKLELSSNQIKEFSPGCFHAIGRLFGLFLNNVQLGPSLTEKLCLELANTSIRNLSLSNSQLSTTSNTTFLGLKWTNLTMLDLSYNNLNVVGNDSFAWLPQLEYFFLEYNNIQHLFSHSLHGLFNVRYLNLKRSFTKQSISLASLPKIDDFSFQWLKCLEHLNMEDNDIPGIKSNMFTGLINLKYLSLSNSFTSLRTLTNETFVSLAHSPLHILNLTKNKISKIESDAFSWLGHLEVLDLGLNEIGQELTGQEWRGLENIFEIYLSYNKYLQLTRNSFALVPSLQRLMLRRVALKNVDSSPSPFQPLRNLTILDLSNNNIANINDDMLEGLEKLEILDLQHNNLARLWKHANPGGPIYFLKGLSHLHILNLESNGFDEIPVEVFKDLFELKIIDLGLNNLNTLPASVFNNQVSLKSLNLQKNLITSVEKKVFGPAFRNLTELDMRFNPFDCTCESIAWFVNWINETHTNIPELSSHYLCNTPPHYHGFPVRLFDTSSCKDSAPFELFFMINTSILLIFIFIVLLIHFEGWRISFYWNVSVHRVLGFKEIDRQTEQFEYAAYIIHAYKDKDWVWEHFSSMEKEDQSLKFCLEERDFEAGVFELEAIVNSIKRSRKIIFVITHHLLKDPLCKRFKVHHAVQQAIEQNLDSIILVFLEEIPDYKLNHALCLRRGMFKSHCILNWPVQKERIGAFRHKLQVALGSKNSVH
Experiment: co-immunoprecipitation from TLR3-YFP HELA cell lysates with anti-GFP, blot for Flag
Experimental: 293T cells or TLR-expressing cells (10 cm plates) were transfected using GeneJuice (Novagen) with 4 μg of the indicated plasmids. One to two days after transfection, the cells were lysed in 1 ml of lysis buffer (20 mM Tris-HCl, 2 mM EDTA, 137 mM NaCl, 0.5% Triton X-100, 10% glycerol with protease inhibitors). Polyclonal anti-GFP (Molecular Probes), anti-IRF-3 or anti-CBP antibodies were incubated overnight with the cell lysates in […]. The immune complexes were precipitated and subjected to 4-15% SDS-PAGE and immunoblotted for FLAG- or CFP/YFP-tagged adapters using the anti-Flag mAb M2 (Sigma), or anti-GFP mAb (Clontech), which also recognizes the spectral variants of GFP.
Co-immunoprecipitation studies were performed to determine if TRAM interacts with TLR4. Stable TLR4^YFP- or TLR3^YFP-expressing HELA cells were transiently transfected with 4 μg of plasmid encoding Flag-Mal, Flag-TRAM or Flag TRAM-C117H. Forty-eight hours after transfection, whole cell lysates were immunoprecipitated with anti-GFP antibody and immunoprecipitated complexes immunoblotted for Flag-tagged adapters and co-immunoprecipitation experiments performed.

B1: Flag-tagged Mal (MyD88 adaptor-like; TIRAP) (other, UniProt P58753-2 1-235, looked up)
chain: MASSTSLPAPGSRPKKPLGKMADWFRQTLLKKPKKRPNSPESTSSDASQPTSQDSPLPPSLSSVTSPSLPPTHASDSGSSRWSKDYDVCVCHSEEDLVAAQDLVSYLEGSTASLRCFLQLRDATPGGAIVSELCQALSSSHCRVLLITPGFLQDPWCKYQMLQALTEAPGAEGCTIPLLSGLSRAAYPPELRFMYYVDGRGPDGGFRQVKEAVMRCKLLQEGEGERDSATVSDLL
notes: pEF-Bos-Flag Mal as described in Fitzgerald et al; also called Flag-Mal; pEF-Bos-Flag Mal; not shown: Flag tag
binding result: no binding
